We go through 24 molecules from article PMC4224745, “Modulation, Bioinformatic Screening, and Assessment of Small Molecular Peptides Targeting the Vascular Endothelial Growth Factor Receptor” (Cell Biochemistry and Biophysics, 2014).

No end group written: not given here.

The test system of experiment [1] is A549 cells. Nature of the experiment: Fluorescence microscopy of rhodamine-conjugated peptides binding to A549 cells. It counts as cell-based, human. The settings on record: rhodamine-conjugated peptides 45 µmol/L, fixed A549 cells, 2 h at 4 °C (method) or 6 h (results). Here is the method:
The highest affinity peptides, NO.15 (QKRKRKKSRKKH) and NO.17 (RKRKRKKSRYIVLS), were conjugated with a fluorochrome, and fluorescence microscopy was used to observe binding to A549 cells as follows. A549 cells were plated on coverslips and grown overnight. The cells were then washed three times with PBS and fixed with 4 % paraformaldehyde for 15 min at room temperature. The cells were incubated at 37 °C for 30 min with 2 % BSA to block nonspecific binding, and subsequently washed three times with PBS. Rhodamine-conjugated peptides (45 µmol/L) were added and incubated with the cells for 2 h at 4 °C. After three washes with PBS, fluorescence microscopy (maximum absorption wavelength of 552 nm) was used to observe cellular staining. Unconjugated rhodamine was used as staining control.

Experiment [2] relates to VEGFR. Nature of the experiment: In vitro receptor competition binding assay with 125I-VEGF165 on A549 cells. More on the design: species or system human. The following applies: for IC50: A549 cells, peptide 0–6,500 nmol/L, 30 min at 4 °C, then 125I-VEGF165 0.37 μg/L for 2 h at 4 °C, γ-counter, duplicate wells, read-out: IC50, competitive VEGFR binding with 125I-VEGF; for Fold increase in affinity for VEGFR relative to VEGF125–136: from the IC50 values of the 125I-VEGF competition on A549 cells. Here is the method: A549 cells were cultured in 24-well culture plates at 3 × 10^4 cells/well in duplicate for each treatment. Cultures were maintained at 37 °C in a 5 % CO2 incubator. After 24 h, the culture supernatant was discarded, and cells were washed in PBS, followed by the addition of serum-free culture medium (Hyclone, Logan, UT) before performing an in vitro competitive-binding assay. To each well, VEGF125–136 or optimized peptides were added at the following concentrations: 0, 1.3, 6.5, 32.5, 65, 650, and 6,500 nmol/L. After a 30-min incubation period at 4 °C, 1.85 kBq ^125I-VEGF165 (PerkinElmer,Boston, MA) at a final concentration of 0.37 μg/L was added to each well, and the plates were further incubated for another 2 h at 4 °C. The culture supernatant was discarded, and the cells were washed twice with pre-cooled (4 °C) PBS containing 0.1 % BSA to remove unbound ^125I-VEGF165. The cells were then trypsin digested and quickly filtered through glass fiber filter paper using a multi-channel microfluidic device. Radioactive counts (cpm) on the filter paper were determined using a γ-counter (Chongqing Optical & Electrical Instrument). Peptide competition binding curves were plotted, and IC50 values for each peptide were calculated using SPSS13.0 statistics software.

Experiment [3] concerns the target vascular endothelial growth factor receptor (VEGFR) (human (endogenous in A549), UniProt P17948 27-1338). Nature of the experiment: radioligand binding; competition on A549 cells in 24-well plates, serum-free medium: peptide at 0-6,500 nmol/L for 30 min at 4 °C, then 1.85 kBq 125I-VEGF165 (0.37 μg/L) for 2 h at 4 °C; washed, trypsinised, filtered, γ-counted; IC50 by SPSS13.0. The settings on record: one partner purified.

Sequence of vascular endothelial growth factor receptor (VEGFR) (P17948 27-1338): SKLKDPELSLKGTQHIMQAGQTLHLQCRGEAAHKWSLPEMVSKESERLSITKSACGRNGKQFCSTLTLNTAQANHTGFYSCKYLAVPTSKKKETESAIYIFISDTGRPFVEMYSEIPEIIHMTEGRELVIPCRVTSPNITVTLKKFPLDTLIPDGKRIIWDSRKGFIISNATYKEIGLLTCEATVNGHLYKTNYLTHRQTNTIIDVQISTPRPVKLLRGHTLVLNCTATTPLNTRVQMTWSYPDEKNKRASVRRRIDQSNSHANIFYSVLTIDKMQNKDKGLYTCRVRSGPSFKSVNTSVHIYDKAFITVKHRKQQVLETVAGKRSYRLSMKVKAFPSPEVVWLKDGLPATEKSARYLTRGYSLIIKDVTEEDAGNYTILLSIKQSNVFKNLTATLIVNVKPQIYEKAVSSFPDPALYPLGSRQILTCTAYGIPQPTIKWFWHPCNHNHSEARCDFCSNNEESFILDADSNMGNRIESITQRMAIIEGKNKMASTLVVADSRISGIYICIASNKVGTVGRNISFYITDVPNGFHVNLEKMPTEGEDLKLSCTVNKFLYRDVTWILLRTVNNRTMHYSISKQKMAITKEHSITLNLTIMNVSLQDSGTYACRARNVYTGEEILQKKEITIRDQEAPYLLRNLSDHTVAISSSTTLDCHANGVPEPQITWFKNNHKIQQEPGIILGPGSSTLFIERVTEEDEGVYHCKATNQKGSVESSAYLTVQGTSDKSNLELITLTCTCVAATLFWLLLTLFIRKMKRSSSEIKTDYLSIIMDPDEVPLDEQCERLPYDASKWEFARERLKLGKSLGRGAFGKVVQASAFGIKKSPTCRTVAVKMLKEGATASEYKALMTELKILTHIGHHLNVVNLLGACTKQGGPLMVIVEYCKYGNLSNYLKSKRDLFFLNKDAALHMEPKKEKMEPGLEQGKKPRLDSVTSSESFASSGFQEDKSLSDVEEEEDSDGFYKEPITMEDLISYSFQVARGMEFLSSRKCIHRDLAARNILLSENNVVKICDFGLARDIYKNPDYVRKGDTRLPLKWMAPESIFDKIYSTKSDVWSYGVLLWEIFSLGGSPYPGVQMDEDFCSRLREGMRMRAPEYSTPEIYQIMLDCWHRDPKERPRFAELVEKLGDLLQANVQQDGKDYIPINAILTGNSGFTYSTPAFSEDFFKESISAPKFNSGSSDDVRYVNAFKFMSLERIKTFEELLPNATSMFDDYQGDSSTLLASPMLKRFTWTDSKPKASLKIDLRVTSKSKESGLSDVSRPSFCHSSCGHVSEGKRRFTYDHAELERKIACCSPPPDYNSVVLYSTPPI

RKRKRKKSRYIVLS [compound 17]: in experiment [1], the “Binding sites / fluorescent staining on A549 cells” value is “plasma membrane and perinuclear cytoplasm”. Also, in experiment [2], the half-inhibitory concentration (IC50) is 185 ± 14 nM and the “Fold increase in affinity for VEGFR relative to VEGF125–136” value came out at 2.5 fold.
On to “rhodamine [unconjugated rhodamine, reference compound]”, for which, in experiment [1], the “Binding sites / fluorescent staining on A549 cells” value is reported as “did not result significant levels of fluorescent staining”.
QKRKRKKSRKKH [compound 15]: the “Binding sites / fluorescent staining on A549 cells” value in experiment [1] is “plasma membrane and perinuclear cytoplasm”. The concentration for half-maximal inhibition (IC50) in experiment [2] was found to be 80 ± 7 nM. Further, the “Fold increase in affinity for VEGFR relative to VEGF125–136” value in experiment [2] (listed as QKRKRKKSRKKH) is 6 fold and ≈ 6 fold.

B1: QFRKRKKSRYKF (peptide)
peptide: QFRKRKKSRYKF
B1 showed an IC50 in experiment [3] of 323 ± 17 nM.

B2: QKRKRKKSRYKK (peptide)
peptide: QKRKRKKSRYKK
For the molecule B2, the IC50 in experiment [3] is 571 ± 40 nM.

B3: QKRKRKKSRYKY (peptide)
peptide: QKRKRKKSRYKY
With B3, the IC50 in experiment [3] amounted to 280 ± 13 nM.

B4: QKRKRKKSRKKH (peptide)
peptide: QKRKRKKSRKKH
notes: also called NO.15
In turn, B4 yielded an IC50 in experiment [3] of 80 ± 7 nM.

B5: QKRKRKKSRYPLS (peptide)
peptide: QKRKRKKSRYPLS
Molecule B5 had a half-inhibitory concentration (IC50) in experiment [3] of 542 ± 16 nM.

B6: VEGF_(125–136) (peptide)
peptide: QKRKRKKSRYKS
notes: also called Control
In turn, B6 came in with an IC50 in experiment [3] of 464 ± 12 nM.

B7: QFRKRKKSRYLS (peptide)
peptide: QFRKRKKSRYLS
B7: the IC50 in experiment [3] stood at 694 ± 29 nM.

B8: QFRKRKKSRYPS (peptide)
peptide: QFRKRKKSRYPS
As for B8, in experiment [3], the IC50 came out at 4210 ± 76 nM.

B9: FFRKRKKSRYKS (peptide)
peptide: FFRKRKKSRYKS
Take B9: the IC50 in experiment [3] was 188 ± 25 nM.

B10: QFRKRKKSRYPK (peptide)
peptide: QFRKRKKSRYPK
As to B10, the IC50 in experiment [3] worked out at 273 ± 19 nM.

B11: IVFKRKRKKSRYLS (peptide)
peptide: IVFKRKRKKSRYLS
In the case of B11, the IC50 in experiment [3] turned out to be 637 ± 25 nM.

B12: QFRKRKKSRYKH (peptide)
peptide: QFRKRKKSRYKH
In turn, B12 showed an IC50 in experiment [3] of 252 ± 16 nM.

B13: QKRKRKKSRYRK (peptide)
peptide: QKRKRKKSRYRK
B13 registered a half-maximal inhibitory concentration (IC50) in experiment [3] of 405 ± 20 nM.

B14: QFRKRKKSRWKS (peptide)
peptide: QFRKRKKSRWKS
Take B14: the 50% inhibitory concentration (IC50) in experiment [3] was 92 ± 9 nM.

B15: RKRKRKKSRKKH (peptide)
peptide: RKRKRKKSRKKH
For B15, the IC50 in experiment [3] is 283 ± 9 nM.

B16: QFRKRKKSRYKS (peptide)
peptide: QFRKRKKSRYKS
B16: the IC50 in experiment [3] was determined as 665 ± 38 nM.

B17: KKRKRKKSRKRK (peptide)
peptide: KKRKRKKSRKRK
B17: the half-inhibitory concentration (IC50) in experiment [3] was 315 ± 11 nM.

B18: QHKRKRKKSRIVL (peptide)
peptide: QHKRKRKKSRIVL
Regarding B18, the half-inhibitory concentration (IC50) in experiment [3] was 424 ± 37 nM.

B19: RKRKRKKSRYIVLS (peptide)
peptide: RKRKRKKSRYIVLS
notes: also called NO.17
Regarding B19, the IC50 in experiment [3] was found to be 185 ± 14 nM.

B20: KFRKRKKSRYIV (peptide)
peptide: KFRKRKKSRYIV
Consider B20, for which, in experiment [3], the IC50 came to 273 ± 33 nM.

B21: QKRKRKKSRYPK (peptide)
peptide: QKRKRKKSRYPK
B21 had an IC50 in experiment [3] of 602 ± 19 nM.

A word on the IC50: it is the concentration at which inhibition is half-maximal.
